Reference: the DeepSol protein solubility set

experiment: soluble on expression in E. coli; label from the status in PepcDB or PDB records

Row | Sequence | soluble on expression in E. coli
1 | MGHHHHHHSHDFEFIRRVEASEESLDVVFAGRLIKEKGADLLIKAMKLLPDYSCLIVGEGPEKASLIKSAPENVKFAGFMNYGYLIATLKSAKVFVLPSRREGFGIAALEANACGLPVVTINHPMNAVVEIARETGFIASPSPQDIAEKIKIAMESRKKMRRRCVDYARKF | not soluble
2 | MTNTAKILNFCRGNFAKQERNVADLDDGYARLSNMLLEAYSGADLTKRQFKVLLAILRKTYGWNKPMDRITDSQLSEITKLPVKRCNEAKLELVRMNIIKQQGGMFGPNKNISEWCIPQNEGKSPKTRDKTSLKLGDCYPSKQGDTKDTITKEKRKDYSSENSGESSDQPENDLSVVKPDAAIQSGSKWGTAEDLTAAEWMFDMVKTIAPSARKPNFAGWANDIRLMRERDGRNHRDMCVLFRWACQDNFWSGNVLSPAKLRDKWTQLEINRNKQQAGVTACKPKLDLTNTDWIYGVDL | not soluble
3 | MIVTTTSGIQGKEIIEYIDIVNGEAIMGANIVRDLFASVRDVVGGRAGSYESKLKEARDIAMDEMKELAKQKGANAIVGVDVDYEVVRDGMLMVAVSGTAVRI | soluble
4 | MAPTTVIADNNCNEESSNSFEMEIEAESAILEQIQNKMAKNLESAAYVPPTEEEQKAIDAKSVFIGNVDFNSTIEEVEEHFKGCGHIVRTTIPKDKFTKKQKNFAYIEFDDSSSIENALVMNGSLFRSRPIVVTAKRTNIPGMGHGVRGSSRGTFGRGRGAARGAPGRQQTVVVKYVYVNGPNRGGRGGRGRRFNPY | soluble
5 | GPQLDHVDIDLTDKAAMQDGARTFANYCMGCHSAKFQRYERVATDLGIPADLMMEKLVFTGAKIGDHMDIGMKPADAKTWFGAAPPDLTLVARVRGTDWLYSYLRSFYEDPKRPWGVNNVIFPNVGMPNVLAPLQGRQVIGCKQVQVVEDGKKQFDPLTGTPLTHEACDQLTVVPKTGELNEAQFDEKVKNLVTFLAYSANPNKLASERIG | not soluble
6 | MGHHHHHHSHMNIFIMRHGEAEVMANSDKARHLTVYGSKQAFLQGQWLKQHLSTLVINSLDRILVSPYVRAQETFHQVNQAFDLELENKFEIWEGITPYGHAHSVIDYLEVLKDEGVKSVLIVSHLPLVGEIVAELYGKRNPISFYPATIAQLLWDGNKSEILMHQASPVIYLK | not soluble
7 | MAQFIDRRLNGKKKSTVNRQRFIRRHKDQIKRAVSDAVNQRSVTNTESGESISIPKGDISEPVFHQGQGGIRERVLPGNDQFIKGDKIERPQGGNGGGGAGDGDASADGEGQDDFIFQISKDEYLDILFEELELPNLEKNQVQKITEWETHRAGYQTAGVPSNIDIVRSLQQSLARRTAMTAGKKRLLSELEQELETIKNSEPSQPLAVRKMQEQIEELRERIKHVPYIDSFDLRYKNYERTPIPSSQAVMFCLMDVSGSMDQATKDIAKRFYVLLYLFLTRTYENVEVVFIRHHTQAKEVNEHDFFYSQETGGTMVSSALKLMRDIVAERFPANEWNIYAAQASDGDNWADDSPKCKELLTSSILPTCQYYSYIEITKRHHQTLWTEYDKLAQGFDNFAMKNIRSVEDIYPIFRELFQKQLALEHHHHHH | not soluble
8 | MSMMDKTVLYFGLVEISFDVPDFIFQKIKEQNNKIRYYSKSINILGSVKFINSNQQFIEYDGNGNILVYGRLKYFKEGISLYYIGEYLAECLLIEHSDTLLIHAAAVYNPLSGHSILLLGDKGAGKTTVAIRLCIEHGYHLIGNDQVIFGSNSGILLTYAGTSFFKIRRTAVLSDNLLFKLFSKFFNRSLQFNKASWDDKISIFPKELGIRTCNFSTEISKIYYIKTDKKEKQIYHSIWSDSLASLYLNELLGRHISGQVACFQSDNGKYFSTMPLINYEKNNRVREQIVKGIFAKQKLFKITAATPAKIAEAIIENVKKNS | not soluble
9 | MENLASPPDISFVIAAYNAADTIEAAVQSALDQRGVTLEVIVVDDRSADDTITFVEAIAAIDPRVRLLALEENRGPGGARNAGIEAATGRWIAVLDSDDVIRPERSACMMCRAEAANAAVAVDNLDVVYTDGRPMETMFPEEFLEERAVLTLEDFISSNILFRSTFNFGYMKPMFRRDFLNNEGLRFREDIRIGEDYILLASALAAGGLCVIEPKPGYIYNIREGSISRVLELHHVEAMMRADQEFLSHYTLLPAAMDAQQARARSLQLAHNFLTLVENIKRRSVLGALKTTIRDPAVLGHLRMPIAVRLRRLRDAMFAPAAKIQGLEHHHHHH | soluble
10 | MRVVAEDLWFPEGPVWVGDGSLLVVEIRRKTLTRIFPDGRKHIVAELGGGPNGAAMGPDGYCYVANNGGFAFRQREDGRWVTSGTPEDYRTGRIERVDIETGKVEVLYDRIDGRNIRGPNDLVIDAAGGIWFTDPGKTRHRDWDRGSICYATIDGSHIEEKVFPIHKPNGIGLSPDGRTLYVAETETARLWAWDLAGPGRLAAPAAASPASPHGSRLAYASPVYQRFDSLAVQADGAVAIGTLDRGGITTVRPDGSASFVPVAGDTHITNLCFGGEGMRKAYVTQSYAGRLVEIDWASPGLRLFEILEHHHHHH | not soluble
11 | MGSDKIHHHHHHMTLLNMSNVQIMDVVQALSLSIERGERVGLIGESGSGKTITAMSILRLIPSSGSIVFDGADIQGLSEKQMCALRGKRISMVFQEPMTALDPLMKVGTQISHAIRIHSSVSRAQARKKADALLHSVELDPELRSRYPHELSGGQRQRILIAMALAHDPDLLICDEPTTALDVTSQKAIVDLILRLVAERGTGLLFITHDLGLVARTCERVLVMREGRIIESGTVEDVLKNPREDYTAMLVQASTLAPAPQVALSDDEVLHIDNVTKKYRGTTAVEDVTLTVHRGERLGIVGGSGSGKTTLLKMISGLSSPTSGHINTEGSMRIVFQDPMQSLDPHMSIADIVSEPLGHRDLKAVERALEEVGLDAGMMNRLPHEFSGGQRQRISIARALVSSPDILLADEPVSALDVSVRAKVLALLDRLVSERHLTMLFVSHDLHVVRSLCTTVAVMREGKIVEYGPTEDVFNNPQHEYTKALIEAIPSL | not soluble
12 | MKIIVQKFGGTSVKDDKGRKLALGHIKEAISEGYKVVVVVSAMGRKGDPYATDSLLGLLYGDQSAISPREQDLLLSCGETISSVVFTSMLLDNGVKAAALTGAQAGFLTNDQHTNAKIIEMKPERLFSVLANHDAVVVAGFQGATEKGDTTTIGRGGSDTSAAALGAAVDAEYIDIFTDVEGVMTADPRVVENAKPLPVVTYTEICNLAYQGAKVISPRAVEIAMQAKVPIRVRSTYSNDKGTLVTSHHSSKVGSDVFERLITGIAHVKDVTQFKVPAKIGQYNVQTEVFKAMANAGISVDFFNITPSEIVYTVAGNKTETAQRILMDMGYDPMVTRNCAKVSAVGAGIMGVPGVTSKIVSALSEKEIPILQSADSHTTIWVLVHEADMVPAVNALHEEFELSK | soluble
13 | MSILRIHAREIFDSRGNPTVEVDLYTAKGLFRAAVPSGASTGIYEALELRDNDKTRFMGKGVSQAVEHINKTIAPALVSKKVNVVEQEKIDKLMIEMDGTENKSKFGANAILGVSLAVCKAGAVEKGVPLYRHIADLAGNPEVILPVPAFNVINGGSHAGNKLAMQEFMILPVGASSFREAMRIGAEVYHNLKNVIKEKYGKDATNVGDEGGFAPNILENKEALELLKTAIAKAGYTDQVVIGMDVAASEFYRSGKYDLDFKSPDDPSRYITPDQLADLYKSFVQNYPVVSIEDPFDQDDWGAWQKFTASAGIQVVGDDLTVTNPKRIAKAASEKSCNCLLLKVNQIGSVTESLQACKLAQSNGWGVMVSHRSGETEDTFIADLVVGLCTGQIKTGAPCRSERLAKYNQILRIEEELGSKAKFAGRSFRNPLAK | soluble
14 | MGSDKIHHHHHHMNTSGWGKYPEIEAQVLTPSSEKALQDLIGTGSYDGVTPRGLGRSYGDSSLGKLMVKTLRLNHMLSFELQSGLLHCQSGVSLAEILEVFVPRGWFLPVTPGTKLVTVGGAIASDIHGKNHHIDGCFCDHVDFLDLLTGSGEIIRCSPHEQAQLFHATCGGMGLTGIILSAAIRLTPIKSAYIDQVTFKSANLGESFELFEKQAEQPYSVAWIDCISSGDKLGRSLLMTGKHAQHGALAAHHNPGLSVPLDLPSFILNPYSIKAFNTLYYHKARQRETHATVHYDPFFYPLDGIGHWNRMYGKNGFTQYQFVIPKEAGLQAMDLILRTIVNSKKGSFLAVLKAFGKENRNLLSFPMEGYTLALDFKIEPDLFPLLDRLDAMVLDHGGRLYLTKDARMNAETFRKCYPKWEQFQNIRQQYGARHTFLSMQSQRLGLD | not soluble
15 | MPEYKAPLRDMRFLIDEVFDFHGRYQALGASDATPDMVAAILDEGSKFCEQVLAPLNRSGDEEGCHFDNGVVTTPKGFKEAYAQYVEGGWNGVASDPAYGGQGLPHSLGLLLSEMIGASNVSWGMYPGLTRGAMSAIHAHGSQAQKDLYLARMTAGTWTGTMCLTEPHCGTDLGIIKTRAVPNADGSHAISGTKIFISAGEHDLSENIVHLVLAKLPDAPAGTKGISLFIVPKFLPDAEGNVGARNAVSCGSIEHKMGIKASATCVMNFDGATGYLIGEPNKGLHCMFTMMNHARLGTGMQGLCLGETSYQGAVRYARERLQMRSLTGPKAPDKPADPIIVHPDVRRMLLTMKAFNEGNRALAYFTAQLLDTEHLSQDAAERERAADLLAFLTPICKAFMTETGQEVTNLGMQVYGGHGYIREWGMEQLVRDCRIAQIYEGTNGIQALDLLGRKVLGSQGKLLRGFTKLVHQLCQAQAEHPQLKGQVAQLAALNAQWGELTQQVGLAAMKNADEVGAASVDYLMFSGYVTLAYFWLRIALVAREKLDAGSGEAAFYEAKLATADFYFSR | not soluble
16 | MDDVYRAFDSVGNILNFRIVEKEQKGFWVSTKIKTVVFDSADMSSDDLFLKCLQSSYKAYFETEPAGLDKRQLMKTLIQKCGFSC | not soluble
17 | ELQVLDTWQGDVVRDTKTLSGGESFLVSLALALALSDLVSHKTSIDSLFLDEGFGTLDSETLDMALDALDNLNASGKMIGVISHIEAMKERIPVQIKVTKRSGLGVSELEKQYKKVS | not soluble
18 | SSQKSLFREDWFQNGSFVSLTLYIKDVDRDESNVTFTQQTVTVNLFSARDKSIYEQTWELSHPVVAEQSLVTYFPQKVELKMKKKEEGLLWKQLTSGATLKSSDNTQSSYSSRETASLQSGRFPKQFAVEEDDDEEQDQSKDLLAFFRDIYEKSDEDTRRAMVKSFVESQGKVLSTDWKKVSSQNSRYDNE | soluble
19 | MPPPIAFNASARKSQSVNQSDVMMMSDPSHVDIIKSNSHTTRIAVNLVSEPESRLKLHGEDARMSWTVLLLVFRATTIATRNNVPELDRELAR | not soluble
20 | AIAKETEQVSEAPHGLEGAWLDLTNRVRVSGDTVEACSAFSIGPPRCRWLLQATDRGVNCAALDHYVPHICGTHTETVYHIAHHRYIKRAVCEIPFFRFHKARIQVCTAKIACTEQVLPSADTDYPCLEPNDLIVGPSALNRAPRYTRAQDSTIEALILIVVGPDGTSDWRDGKLDDRPPYLTPAAIESLATRYPNMRHLLTNLPSVDRRRDGGLVRSHRAFFATDFAGDGTPSESPQKTITELLRVPPDWQLYDDAEGVVCISLAPIEGLDAIPSSVYFKSH | soluble
21 | MGSDKIHHHHHHMSEESIIVVGGGIAGLTGAALLSKEGYQVTLVEAHSQLGGCAGTFKRGSYTFDVGATQVAGLERGGIHHRLFNYLDIPLPDAKILDPGCSVTLGDGSRPINLWHDPLRWQKERQEQFPGSEIFWSLCSKIHESNWEFVERDPILPVRNFWDLSQLIRAIRPSNLLTGFLSKLTIADLLTITGCHKDRRLRSFLDLQLKLYSQEPASRTAALYGATVLQMAQSPRGLWHLHGSMQILSDLLKDSFLRDGGSLLIGHRVTKIIRKENSNVFDVKVLDRRKNLLQMKASDIVFSLPPQSLLDLIPIDGGLSTTYRESIKKLPKPSGAVVFYGALRRVDLPVDCPGHIQVFDEHFGSLFISISLENDQRAPIGMATLIASVFVDIDQWSNLDSQAYTRKKSVVSKQIRAILDHKFDLLETSWDHQELSTPRSFERWTGRPSGIVGGLGQHPDQFGPFGLSSRTPLKGLWLCGDSIYPGEGTAGVSQSALMVVRQLLESKGRHLNIPVFN | not soluble
